Laboratory results as given in patent publication US7056715B1, “GST sequences from soybean and their use in the production of herbicide resistant plants” (Syngenta Limited, priority 1999, dated 2006).

T1: Glycine max (soybean) homoglutathione synthetase, recombinant, C-terminal HIS-tag (pET-MS4-His), SEQ ID No. 1 (Glycine max, UniProt Q9M426)
T1 sequence (Q9M426 1-499): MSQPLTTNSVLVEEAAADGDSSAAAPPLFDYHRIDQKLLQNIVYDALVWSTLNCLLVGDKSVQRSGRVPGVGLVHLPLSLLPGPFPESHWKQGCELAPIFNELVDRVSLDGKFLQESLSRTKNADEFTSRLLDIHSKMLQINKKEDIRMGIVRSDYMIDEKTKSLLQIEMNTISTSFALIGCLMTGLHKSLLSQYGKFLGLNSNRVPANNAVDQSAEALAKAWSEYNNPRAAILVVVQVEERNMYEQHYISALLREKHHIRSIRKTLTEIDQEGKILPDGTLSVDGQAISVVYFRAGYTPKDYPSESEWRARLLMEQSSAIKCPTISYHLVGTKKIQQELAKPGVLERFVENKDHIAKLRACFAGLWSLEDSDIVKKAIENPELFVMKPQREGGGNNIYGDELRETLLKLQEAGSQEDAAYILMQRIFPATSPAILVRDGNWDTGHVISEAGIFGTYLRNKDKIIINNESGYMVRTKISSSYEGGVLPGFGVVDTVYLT


Legend:
[1] = target: T1, Glycine max (soybean) homoglutathione synthetase, recombinant, C-terminal HIS-tag (pET-MS4-His), SEQ ID No. 1; assay: Activity of recombinant homoglutathione synthetase (addition of glycine or β-alanine onto γ-glutamylcysteine; monobromobimane derivatisation); format: biochemical; conditions: 250 mM Tris-HCl pH 8.0, 50 mM KCl, 20 mM MgCl2, 5 mM DTT, 10 mM ATP, 1 mM γ-glutamylcysteine; 30° C.
Procedure: (§1) A 5′ Nco 1 and 3′ Xho 1 restriction enzyme site were introduced into the homoglutathione synthetase cDNA via PCR using primers MS4-Nco (SEQ ID No. 19) and MS-4-HIS (SEQ ID No. 20). Additionally, the use of the MS4-HIS primer provided a C-terminal HIS-tag to assist purification of the enzyme. 5.2 The resulting PCR fragment was digested with Nco1 and Xho 1 and ligated into similarly digested pET-24d. This vector was termed pET-MS4-His. The purification of homoglutathione synthetase was performed using the following method. E. coli BL21 (DE3) harbouring the pET-MS4-His plasmid (section 1.3) were grown at 30° C. until OD600=0.5, after which isopropyl-β-D-thiogalactoside (IPTG) was added to a final concentration of 0.1 mM. Following a 3 hour incubation the bacteria were collected by centrifugation, re-suspended in buffer A (20 mM Tris, 0.5 M NaCl, 5 mM imidazole pH 8.0) and lysed. […] 5.3 The eluted protein was concentrated using a Centriplus 30 (Amicon™) spin column and re-suspended in buffer A prior to application onto a 1 ml HiTrap chelating column (Phamacia™), pre-charged with NiSO4 and equilibrated as described previously. Affinity bound protein was then recovered using an increasing concentration of 20–200 mM imidiazole and the presence of His-tagged recombinant homoglutathione synthetase was detected using His-tagged antibodies according to known procedures. […]

[2] = substrate: NCC(=O)O; assay: purified protein, by the assay type; format: biochemical, Glycine max (soybean); conditions: other: 250 mM Tris-HCl pH 8.0, 50 mM KCl, 20 mM MgCl2, 5 mM DTT, 10 mM ATP, 1 mM γ-glutamylcysteine, 30° C.
Procedure: as §1

[3] = substrate: NCCC(=O)O; assay: purified protein, by the assay type; conditions: other: 250 mM Tris-HCl pH 8.0, 50 mM KCl, 20 mM MgCl2, 5 mM DTT, 10 mM ATP, 1 mM γ-glutamylcysteine, 30° C.
[4] = GST activity of purified recombinant protein toward metolachlor; format: biochemical; conditions: recombinant enzyme, ±SE, n=2; for GST activity toward metolachlor, GSH: thiol GSH; for GST activity toward metolachlor, hGSH: thiol hGSH
Procedure: (§2) 4.2 Nde I or Nco I sites were introduced as appropriate into the 5′ end cDNAs encoding glutathione S-transferase and Bam H1 at the 3′ end using PCR. The cDNA was then cloned into pET-24a or pET-24d as appropriate. The resulting plasmids were introduced into E. coli BL21 (DE3) using standard bacterial transformation procedures known to the skilled artisan. Expression and purification of the recombinant GST was performed using anion-exchange chromatography and S-Hexyl-glutathione affinity chromatography according to the methods known in the art (for example, Skipsey et al., 1997). GST activity of the purified recombinant protein toward CDNB, acetochlor, acifluorfen, chlorimuron-ethyl, fluorodifen. fomesafen and metolachlor in the presence of both glutathione and homoglutathione was performed via assays which are described in Andrews et al., 1997 and Skipsey et al., 1997.

[5] = GST activity of purified recombinant protein toward CDNB; format: biochemical; conditions: recombinant enzyme, ±SE, n=2; for GST activity toward CDNB, GSH: thiol GSH; for GST activity toward CDNB, hGSH: thiol hGSH
Procedure: as §2

[6] = GST activity of purified recombinant protein toward acetochlor; format: biochemical; conditions: recombinant enzyme, ±SE, n=2; for GST activity toward acetochlor, GSH: thiol GSH; for GST activity toward acetochlor, hGSH: thiol hGSH
Procedure: as §2

[7] = GST activity of purified recombinant protein toward acifluorfen; format: biochemical; conditions: recombinant enzyme, ±SE, n=2; for GST activity toward acifluorfen, GSH: thiol GSH; for GST activity toward acifluorfen, hGSH: thiol hGSH
Procedure: as §2

[8] = GST activity of purified recombinant protein toward fluorodifen; format: biochemical; conditions: recombinant enzyme, ±SE, n=2; for GST activity toward fluorodifen, GSH: thiol GSH; for GST activity toward fluorodifen, hGSH: thiol hGSH
Procedure: as §2

[9] = GST activity of purified recombinant protein toward fomesafen; format: biochemical; conditions: recombinant enzyme, ±SE, n=2; for GST activity toward fomesafen, GSH: thiol GSH; for GST activity toward fomesafen, hGSH: thiol hGSH
Procedure: as §2

Molecule | Vmax [1] [pkats/mg hGS] | Km [2] [mM] | Km [3] [mM] | GST activity toward metolachlor, GSH [4] [pkat mg-1] | GST activity toward metolachlor, hGSH [4] [pkat mg-1] | GST activity toward CDNB, GSH [5] [nkat mg-1] | GST activity toward CDNB, hGSH [5] [nkat mg-1] | GST activity toward acetochlor, GSH [6] [pkat mg-1] | GST activity toward acetochlor, hGSH [6] [pkat mg-1] | GST activity toward acifluorfen, GSH [7] [pkat mg-1] | GST activity toward acifluorfen, hGSH [7] [pkat mg-1] | GST activity toward fluorodifen, GSH [8] [pkat mg-1] | GST activity toward fluorodifen, hGSH [8] [pkat mg-1] | GST activity toward fomesafen, GSH [9] [pkat mg-1] | GST activity toward fomesafen, hGSH [9] [pkat mg-1]
NCCC(=O)O [β-alanine] | 42250 ± 3173 | – | – | – | – | – | – | – | – | – | – | – | – | – | –
NCC(=O)O [Glycine] | 3300 ± 341 | – | – | – | – | – | – | – | – | – | – | – | – | – | –
Glycine max (soybean) homoglutathione synthetase, recombinant, C-terminal HIS-tag (pET-MS4-His), SEQ ID No. 1 (Glycine max) (protein) MSQPLTTNSVLVEEAAADGDSSAAAPPLFDYHRIDQKLLQNIVYDALVWSTLNCLLVGDKSVQRSGRVPGVGLVHLPLSLLPGPFPESHWKQGCELAPIFNELVDRVSLDGKFLQESLSRTKNADEFTSRLLDIHSKMLQINKKEDIRMGIVRSDYMIDEKTKSLLQIEMNTISTSFALIGCLMTGLHKSLLSQYGKFLGLNSNRVPANNAVDQSAEALAKAWSEYNNPRAAILVVVQVEERNMYEQHYISALLREKHHIRSIRKTLTEIDQEGKILPDGTLSVDGQAISVVYFRAGYTPKDYPSESEWRARLLMEQSSAIKCPTISYHLVGTKKIQQELAKPGVLERFVENKDHIAKLRACFAGLWSLEDSDIVKKAIENPELFVMKPQREGGGNNIYGDELRETLLKLQEAGSQEDAAYILMQRIFPATSPAILVRDGNWDTGHVISEAGIFGTYLRNKDKIIINNESGYMVRTKISSSYEGGVLPGFGVVDTVYLT | – | 54.9 ± 18.7 | 0.84 ± 0.19 | – | – | – | – | – | – | – | – | – | – | – | –
GST 3.1: Recombinant soybean Glutathione-S-transferase 3.1, SEQ ID No. 8 (protein, Glycine max) MAEQDKVILHGMWASPYAKRVELALNFKGIPYEYVEEDLRNKSDLLLKYNPVHKKVPVLVHNGKAIAESMVILEYIDETWKDGPKLLPSDSYKRAQARFWCHFIQDQLMESTFLVVKTDGEAQQKAIDHVYEKLKVLEDGMKTYLGEGNAIISGVENNFGILDIVFCALYGAYKAHEEVIGLKFIVPEKFPVLFSWLMAIAEVEAVKIATPPHEKTVGILQLFRLSALKSSSATE | – | – | – | 177.5 | 67.5 | 59.2 | 59.2 | 190.5 | 11.0 | 152.5 | 238.5 | 1150 | 1350 | 213.6 | 484.6
GST 3.2: Recombinant soybean Glutathione-S-transferase 3.2, SEQ ID No. 9 (protein, Glycine max) MAEVKLHGFWYSPYTLRVVWTLKLKDIPYQNIEEDRYNKSLQLLEYNPVYKKTPVLVHNGKPLCESMLIVEYIDEIWAHNSLLPADPYERALARFWVKYADDDMFSAVIAFFLSNNDEEREKSIEKIWEHLRVVENQCFGDQKKFFGGDIINIMDIAFGSIFKILVVAEDILDAKVLEDEKFPHLHSWYNNFKDVAVIKENLPDHEKMVAFAKFIREKRLACT | – | – | – | 253.0 | 191.5 | 24.9 | 10.3 | 418.0 | 143.0 | 7.5 | 23.2 | 78.2 | 68.0 | 21.3 | 201.6
GST 3.3: Recombinant soybean Glutathione-S-transferase 3.3, SEQ ID No. 10; may also be referred to as GST 3.6 (protein, Glycine max) MAERDLRLLGAWFSPFALRVQIALNLKGLDYEVVEETLNPKSELLLKSNPVHKKIPVFFHGDKVICESAIIVEYIDEVWSNNALSILPQNAYDRANARFWVSYIDDKWLTSLKSVLATEDDEAKKLHFEQAEEVLEKVEEVFNKCSEGKAYFGGDTIGFVDIGFGSFLSFIRVSENMNERKLLDETKYPGLTLWAETFAADPAVKGLLPETEKLVEFAKILQLKWAAAAAAK | – | – | – | 312.0 | 264.5 | 82.9 | 189.0 | 420.0 | – | 123.0 | 1350 | 360.5 | 602.5 | 110 | 6250
GST 2.6: Recombinant soybean Glutathione-S-transferase 2.6, SEQ ID No. 7 (protein, Glycine max) MSSSQEEVTLLGVVGSPFLHRVQIALKLKGVEYKYLEDDLNNKSDLLLKYNPVYKMIPVLVHNEKPISESLVIVEYIDDTWKNNPILPSDPYQRALARFWAKFIDDKCVVPAWKSAFMTDEKEKEKAKEELFEALSFLENELKGKFFGGEEFGFVDIAAVLIPIIQEIAGLQLFTSEKFPKLSKWSQDFHNHPVVNEVMPPKDQLFAYFKARAQSFVAKRKN | – | – | – | 142.0 | 95.5 | 18.7 | 19.0 | 352.5 | 391.0 | – | 31.1 | – | 19.3 | 27.1 | 350.5
